Laboratory results published in publication doi:10.1101/2023.04.13.536802 (bioRxiv, 2023).
Where no end group is shown, it is not given here.

Molecular target: recombinant transferrin receptor 1 (TfR1) ectodomain (residues C89-F763) (UniProt Q62351 89-763)
Assay: BLI

recombinant transferrin receptor 1 (TfR1) ectodomain (residues C89-F763), sequence (Q62351 89-763): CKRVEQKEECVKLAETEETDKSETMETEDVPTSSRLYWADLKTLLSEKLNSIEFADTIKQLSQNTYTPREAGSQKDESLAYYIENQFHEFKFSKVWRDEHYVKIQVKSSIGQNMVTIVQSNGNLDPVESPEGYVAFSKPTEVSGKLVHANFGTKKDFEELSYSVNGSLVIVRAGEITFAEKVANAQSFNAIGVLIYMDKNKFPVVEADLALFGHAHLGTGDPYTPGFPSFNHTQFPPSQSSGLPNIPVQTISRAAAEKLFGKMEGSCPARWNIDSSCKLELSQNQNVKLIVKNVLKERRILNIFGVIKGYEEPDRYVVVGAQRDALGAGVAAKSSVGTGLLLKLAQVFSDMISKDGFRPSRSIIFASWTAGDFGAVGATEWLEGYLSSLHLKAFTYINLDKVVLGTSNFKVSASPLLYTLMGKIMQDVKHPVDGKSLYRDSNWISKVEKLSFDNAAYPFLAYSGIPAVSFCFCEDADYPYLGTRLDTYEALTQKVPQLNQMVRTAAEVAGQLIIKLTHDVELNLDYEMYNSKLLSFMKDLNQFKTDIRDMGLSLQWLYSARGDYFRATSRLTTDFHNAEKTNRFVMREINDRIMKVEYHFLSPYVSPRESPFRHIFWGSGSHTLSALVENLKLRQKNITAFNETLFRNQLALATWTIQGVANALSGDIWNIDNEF

THRPPMWSPVWP (also: biotin, position not given here) [T12, 12-mer peptide that binds transferrin receptor 1]
Kd: 26 nM
